In article PMC11362571, “Multistage protective anti-CelTOS monoclonal antibodies with cross-species sterile protection against malaria” (Nature Communications, 2024):
Values joined by “and” are separate entries in the source; they are usually repeats but may differ in a detail not shown here. Identical values can stand only once.

Columns and labels:
[1] = biological target: the molecule itself; experiment: crystal structure; PvCelTOS with 7g7 Fab at a 1:1 ratio, complex purified by SEC; crystals at 17 °C, 0.1 M sodium acetate pH 4.5, 15% PEG 4000; 3.2 Å
[2] = biological target: the molecule itself; experiment: crystal structure; PfCelTOS with 4h12 Fab at a ratio of 1.5:1, complex purified by SEC; crystals at 18 °C, 0.2 M lithium acetate, 21% PEG 3350; 3.5 Å
[3] = biological target: T1, P. falciparum CelTOS (cell-traversal protein for ookinetes and sporozoites), 3D7, residues F25-D182 (Plasmodium falciparum 3D7); experiment: BLI; mAb immobilised on anti-mouse IgG Fc capture (AMC) biosensors, 25 °C; CelTOS serially diluted in HBS-EP+ buffer as analyte; OctetRed96e; global fit, 1:1 model; each biological replicate the average of three repeats; settings: both partners purified
T1 construct: PfCelTOS, P. falciparum 3D7, PF3D7_1216600, residues F25-D182; also called PfCelTOS; source: E. coli BL21(DE3), pET28, purified (nickel resin, Superdex 200 increase)
T1 chain: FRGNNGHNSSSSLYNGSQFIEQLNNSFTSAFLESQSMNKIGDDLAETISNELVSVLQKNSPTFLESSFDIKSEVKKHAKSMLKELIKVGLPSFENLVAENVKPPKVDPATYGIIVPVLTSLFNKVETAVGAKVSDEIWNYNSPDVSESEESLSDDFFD

[4] = biological target: T2, P. vivax CelTOS (cell-traversal protein for ookinetes and sporozoites), Sal-1, residues L36-D196 (Plasmodium vivax Sal-1); experiment: as above; settings: both partners purified
T2 construct: PvCelTOS, P. vivax Sal-1, PVX_123510, residues L36-D196; also called PvCelTOS; source: E. coli BL21(DE3), pET28, purified (nickel resin, Superdex 200 increase)
T2 chain: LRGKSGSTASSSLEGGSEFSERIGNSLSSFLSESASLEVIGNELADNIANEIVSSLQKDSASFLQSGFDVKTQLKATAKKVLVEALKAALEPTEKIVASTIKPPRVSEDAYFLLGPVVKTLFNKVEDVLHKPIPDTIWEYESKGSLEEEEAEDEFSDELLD

[5] = biological target: T3, P. vivax CelTOS (Sal-1, PVX_123510, residue L36-D196) (P. vivax, UniProt A5JZX5); experiment: BLI; mAb immobilised on anti-mouse IgG Fc capture (AMC) biosensors at 25 °C; CelTOS serially diluted in HBS-EP+ buffer; global fit, 1:1 model; settings: both partners purified
T3 construct: Cell-traversal protein for ookinetes and sporozoites (CelTOS), P. vivax Sal-1, PVX_123510, residues L36-D196; also called PvCelTOS; cell-traversal protein for ookinetes and sporozoites; source: E. coli BL21(DE3), pET28, purified (Ni resin, Superdex 200 increase)

[6] = biological target: T4, P. falciparum CelTOS (3D7, PF3D7_1216600, residue F25-D182) (P. falciparum, UniProt Q8I5P1); experiment: as above; settings: both partners purified
T4 construct: Cell-traversal protein for ookinetes and sporozoites (CelTOS), P. falciparum 3D7, PF3D7_1216600, residues F25-D182; Only S60-S116 are ordered in PDB 8UKH; also called PfCelTOS; cell-traversal protein for ookinetes and sporozoites; source: E. coli BL21(DE3), pET28, purified (Ni resin, Superdex 200 increase)

Binder	Kd [3]	koff [3]	kon [3]	Kd [4]	koff [4]	kon [4]	Kd [5]	Kd [6]	other results
P. vivax CelTOS (Sal-1, PVX_123510, residue L36-D196) (natural protein, UniProt A5JZX5 36-196, looked up, Cell-traversal protein for ookinetes and sporozoites (CelTOS), P. vivax Sal-1, PVX_123510, residues L36-D196; also called PvCelTOS; cell-traversal protein for ookinetes and sporozoites; source: E. coli BL21(DE3), pET28, purified (Ni resin, Superdex 200 increase)) LRGKSGSTASSSLEGGSEFSERIGNSLSSFLSESASLEVIGNELADNIANEIVSSLQKDSASFLQSGFDVKTQLKATAKKVLVEALKAALEPTEKIVASTIKPPRVSEDAYFLLGPVVKTLFNKVEDVLHKPIPDTIWEYESKGSLEEEEAEDEFSDELLD									stoichiometry N [1]: 2
P. falciparum CelTOS (3D7, PF3D7_1216600, residue F25-D182) (natural protein, UniProt Q8I5P1 25-182, looked up, Cell-traversal protein for ookinetes and sporozoites (CelTOS), P. falciparum 3D7, PF3D7_1216600, residues F25-D182; Only S60-S116 are ordered in PDB 8UKH; also called PfCelTOS; cell-traversal protein for ookinetes and sporozoites; source: E. coli BL21(DE3), pET28, purified (Ni resin, Superdex 200 increase)) FRGNNGHNSSSSLYNGSQFIEQLNNSFTSAFLESQSMNKIGDDLAETISNELVSVLQKNSPTFLESSFDIKSEVKKHAKSMLKELIKVGLPSFENLVAENVKPPKVDPATYGIIVPVLTSLFNKVETAVGAKVSDEIWNYNSPDVSESEESLSDDFFD									stoichiometry N [2]: 2
anti-CelTOS monoclonal antibody 7g7 (mouse IgG1) (antibody, V domains shown, 7g7 heavy chain variable region; mouse IgG1 heavy chain constant region (IgG1 subclass by isotyping ELISA); 7g7 light chain variable region; light chain constant region; the light chain of the Fab is in PDB 8ULF; IgG1; raised in mice immunised with PvCelTOS; also called 7g7 mAb; 7g7 IgG; source: hybridoma culture, purified (Protein A resin)) VH: EIQLQQSGPELVKPGASVKVSCKASGYSFTDYNMYWVKQSHGKSLEWIGYIDPYNGGTRYNQKFRDKATLTVDKSSSTAFMHLNSLTSEDSAVYYCARGYYYGNPLHFDVWGAGTTVTVSS VL: QIVLTQSPAIMSASPGEKVTMTCSASSSVSYIHWYQQKSGTSPKRWIYDTSKLASGVPARFSGSGSGTSYSLTISSMEAEDAATYYCQQWISYPATFGAGTKLELK	470 nM and 480 nM and 500 nM	0.00279 s⁻¹ and 0.00293 s⁻¹ and 0.00281 s⁻¹ and 0.00284 s⁻¹	5900 M⁻¹ s⁻¹ and 6000 M⁻¹ s⁻¹ and 5600 M⁻¹ s⁻¹ and 5800 M⁻¹ s⁻¹	58.5 nM and 39.5 nM and 54.2 nM	0.00309 s⁻¹ and 0.00368 s⁻¹ and 0.00227 s⁻¹ and 0.00332 s⁻¹	60200 M⁻¹ s⁻¹ and 62300 M⁻¹ s⁻¹ and 57000 M⁻¹ s⁻¹ and 61300 M⁻¹ s⁻¹			
monoclonal antibody 7g7 (IgG) (antibody, V domains shown, the Fab part of the heavy chain is in PDB 8ULF; mouse IgG1; the light chain is in PDB 8ULF; IgG1; raised by immunising mice with PvCelTOS; also called 7g7 mAb; source: mouse hybridoma supernatant, purified (protein A); copies: 2 + 2) VH: EIQLQQSGPELVKPGASVKVSCKASGYSFTDYNMYWVKQSHGKSLEWIGYIDPYNGGTRYNQKFRDKATLTVDKSSSTAFMHLNSLTSEDSAVYYCARGYYYGNPLHFDVWGAGTTVTVSS VL: QIVLTQSPAIMSASPGEKVTMTCSASSSVSYIHWYQQKSGTSPKRWIYDTSKLASGVPARFSGSGSGTSYSLTISSMEAEDAATYYCQQWISYPATFGAGTKLELK							50.7 nM	480 nM	
anti-CelTOS monoclonal antibody 4h12 (mouse IgG1) (antibody, V domains shown, 4h12 heavy chain variable region; mouse IgG1 heavy chain constant region (IgG1 subclass by isotyping ELISA); 4h12 light chain variable region; light chain constant region; the light chain of the Fab is in PDB 8UKH; IgG1; raised in mice immunised with PfCelTOS; also called 4h12 mAb; 4h12 IgG; source: hybridoma culture, purified (Protein A resin)) VH: QVQLQQSGPELVKPGASVKISCKASGYALSSSWLNWVKQRPGQGLEWIGRIFPGDGDTNYNGKFKGKATLTADKSSSTAYLQLSSLTSVDSAVYFCARGGTVVFDYWGQGTTLTVSS VL: DIVMTQSHKFMSTSVGDRVNITCKASQDVGIAVAWYQQRPGQSPKLLIYWASKRHTGVHDRFTGTGSGTDFTLTISTVQSEDLADYFCQQYSNSLTFGAGTTLELS	65.9 nM and 68 nM and 62.3 nM	0.00569 s⁻¹ and 0.00609 s⁻¹ and 0.00521 s⁻¹ and 0.00566 s⁻¹	86300 M⁻¹ s⁻¹ and 89700 M⁻¹ s⁻¹ and 84700 M⁻¹ s⁻¹ and 86900 M⁻¹ s⁻¹	41600 nM and 57500 nM and 56300 nM	0.0411 s⁻¹ and 0.0511 s⁻¹ and 0.0549 s⁻¹ and 0.0491 s⁻¹	1100 M⁻¹ s⁻¹ and 900 M⁻¹ s⁻¹ and 1000 M⁻¹ s⁻¹			
monoclonal antibody 4h12 (IgG) (antibody, V domains shown, the Fab part of the heavy chain is in PDB 8UKH; mouse IgG1; the light chain is in PDB 8UKH; IgG1; raised by immunising mice with PfCelTOS; also called 4h12 mAb; source: mouse hybridoma supernatant, purified (protein A); copies: 2 + 2) VH: QVQLQQSGPELVKPGASVKISCKASGYALSSSWLNWVKQRPGQGLEWIGRIFPGDGDTNYNGKFKGKATLTADKSSSTAYLQLSSLTSVDSAVYFCARGGTVVFDYWGQGTTLTVSS VL: DIVMTQSHKFMSTSVGDRVNITCKASQDVGIAVAWYQQRPGQSPKLLIYWASKRHTGVHDRFTGTGSGTDFTLTISTVQSEDLADYFCQQYSNSLTFGAGTTLELS							51800 nM	65.4 nM	
